In patent publication US20090060916A1 (published 2009):
Changes are numbered by the printed parent chain. Values joined by “and” are separate entries in the source; they are usually repeats but may differ in a detail not shown here. Identical values can stand only once. One block for each binder: values may come before it.

Key:
human IL-13 [1] = target: T1, human IL-13 (human, UniProt P35225 35-146, biotinylated on the Biacore chip); test: IL-13 sandwich ELISA, competition with coating antibody
T1 construct: also called hIL-13; recombinant human IL-13
T1 sequence (P35225 35-146 limits assumed): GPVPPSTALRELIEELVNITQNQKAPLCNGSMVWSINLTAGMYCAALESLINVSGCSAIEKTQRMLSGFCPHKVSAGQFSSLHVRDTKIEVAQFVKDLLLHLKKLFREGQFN
Protocol: A MAXISORP™ plate (high protein binding ELISA plate, Nunc, Denmark) was coated overnight with 2.5 μg/ml coating antibody (Module Set, Bender MedSystems, Vienna, Austria), then washed once with 0.05% (v/v) Tween 20 in PBS before blocking with 0.5% (w/v) BSA 0.05% (v/v) Tween 20 in PBS. […] The plate was then incubated with TMB substrate (KPL, Gaithersburg, USA), and the reaction was stopped by the addition of HCl and the absorbance read at 450 nm.

human IL-4 [2] = target: T2, human IL-4 (human, UniProt P05112 25-153, biotinylated in the receptor binding assay and on the Biacore chip); test: IL-4 RBA: ELISA, IL-4R/Fc coated, biotinylated IL-4
T2 construct: also called interleukin-4; biotinylated IL-4
T2 sequence (looked up): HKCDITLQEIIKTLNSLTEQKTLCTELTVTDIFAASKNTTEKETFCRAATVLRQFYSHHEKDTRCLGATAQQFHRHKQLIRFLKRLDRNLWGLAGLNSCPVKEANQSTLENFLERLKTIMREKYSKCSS
Excerpt: (§1) The wells were washed three times with 0.1% (v/v) Tween 20 in PBS, followed by three washes with PBS, before blocking with 2% (w/v) BSA in PBS. […] The reaction was stopped by the addition of HCl and the absorbance read at 450 nm.

human IL-13 [3] = target: T1, human IL-13; test: Biacore SPR, IL-13 surface, before and after DOM10-53-386
Protocol: Analytes were passed over the antigen-coated flow-cell, with in-line referencing against a blank flow-cell, at a flow rate of 30 μl/min in HBS-EP running buffer (Biacore).

human IL-13 [4] = target: T1, human IL-13; test: IL-13 Biacore
human IL-4 [5] = target: T2, human IL-4; test: DOM9 RBA (IL-4 RBA)
Excerpt: as §1

human IL-13 [6] = target: T1, human IL-13; test: cell-based or functional assay
cynomolgous IL-13 = cynomolgous IL-13 (cynomolgous, UniProt Q0PW92 19-132, The Biacore assay used biotinylated cIL-13 according to our card. The biotin cannot be carried in the letters.); test: cell-based or functional assay
Sequence of cynomolgous IL-13 (Q0PW92 entry or part of it limits assumed, form in doubt): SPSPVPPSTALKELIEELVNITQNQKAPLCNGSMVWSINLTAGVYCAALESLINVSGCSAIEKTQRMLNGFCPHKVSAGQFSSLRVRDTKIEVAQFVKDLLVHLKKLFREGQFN

human IL-13 [7] = target: T1, human IL-13; test: assay not named ('Potency IC50')

- EC50 (human IL-13 [1]): 1 nM
- IC50 (human IL-4 [2]): 4.3 nM and 6 nM
B1: DOM9-112-210-DOM10-53-546 (bispecific antibody)
chain: EVQLLESGGGLVQPGGSLRLSCAASGFTFRNFGMGWVRQAPGKGLEWVSWIISSGTETYYADSVKGRFTISRDNSKNTLYLQMNSLRAEDTAVYYCAKSLGRFDYWGQGTLVTVSSASTKGPSGVQLLESGGGLVQPGGSLRLSCAASGFVFPWYDMGWVRQAPGKGLEWVSSIDWKGGKTYYADSVKGRFTISRDNSKNTLYLQMNSLRAEDTAVYYCATAEDEPGYDYWGQGTLVTVSS
notes: in-line fusion, from pDOM5

- binding result (human IL-13 [3]): binds
B2: DOM10-213 (other)
VL: DIQMTQSPSSLSASVGDRVTITCRASQAIPWGLNWYQQKPGKAPKLLIYDVSSLQSGVPSRFSGSGSGTDFTLTISSLQPEDFATYYCQQDIHIPMTFGQGTKVEIKR
notes: Vk dAb

- binding result (human IL-13 [3]): binds
B3: DOM10-277 (other)
VH: EVQLLESGGGLVQPGGSLRLSCAASGFTFSSYEMDWVRQAPGKGLEWVSTISADGVTTYYADSVKGRFTISRDNSKNTLYLQMNSLRAEDTAVYYCAKAFDAFDYWGQGTLVTVSS
notes: VH dAb

- EC50, HEK293 STAT6 SEAP reporter assay, hIL-13 (human IL-13 [6]): 2.3 nM
- EC50, HEK293 STAT6 SEAP reporter assay, cIL-13 (cynomolgous IL-13): 2 nM
B5: DOM10-275-94 (other)
VH: EVQLLESGGGLVQPGGSLRLSCAASGFTFDVAEMDWVRQAPGKGLEWVSTISPSRRGTYYADSVKGRFTISRDNSKNTLYLQMNSLRAEDTAVYYCAKAYTGRSWWGPGTLVTVSS

- binding result (human IL-13 [4]): binds
- IC50 (human IL-4 [5]): 10.9 nM
B7: DOM9-112-210-ASTKGPS-DOM10-275 (bispecific antibody)
chain: EVQLLESGGGLVQPGGSLRLSCAASGFTFRNFGMGWVRQAPGKGLEWVSWIISSGTETYYADSVKGRFTISRDNSKNTLYLQMNSLRAEDTAVYYCAKSLGRFDYWGQGTLVTVSSASTKGPSEVQLLESGGGLVQPGGSLRLSCAASGFTFDREEMDWVRQAPGKGLEWVSTISPSGRKTYYADSVKGRFTISRDNSKNTLYLQMNSLRAEDTAVYYCAKHGTGFDYWGQGTLVTVSS
notes: in-line fusion, from pDOM5

- binding result (human IL-13 [4]): binds
- IC50 (human IL-4 [5]): 10.2 nM
B8: DOM9-112-210-ASTKGPS-DOM10-276 (bispecific antibody)
chain: B7 chain with D153R, R154D, E155Y, T173S, S175G, R179S, K180E, H222A, G223Y, G225S
notes: in-line fusion, from pDOM5

- binding result (human IL-13 [3]): binds
B9: DOM10-215 (other)
VL: DIQMTQSPSSLSASVGDRVTITCRASQNIFADLNWYQQKPGKAPKLLIYMGSRLQSGVPSRFSGSGSGTDFTLTISSLQPEDFATYYCQQDYKFPLTFGQGTKVEIKR
notes: Vk dAb

- binding result (human IL-13 [3]): binds
B11: DOM10-236 (other)
VH: EVQLLESGGGLVQPGGSLRLSCAASGFTFPKYDMMWVRQAPGKGLEWVSSIDHLGVNTYYADSVKGRFTISRDNSKNTLYLQMNSLRAEDTAVYYCAKESDWPSFDYWGQGTLVTVSS
notes: VH dAb

- IC50 (human IL-13 [7]): 20 nM
B16: DOM10-53-612 (other)
VH: GVQLLESGGGLVQPGGSLRLSCAASGFAFAAYDMGWVRQAPGKGLEWVSSIDWKGMETYYADSVKGRFTISRDNSKNTLYLQMNSLRAEDTAVYYCATAEDEPGYDYWGQGTLVTVSS
notes: VH dAb

- IC50 (human IL-13 [7]): 0.29 nM
B18: DOM10-53-434 (other)
VH: B16 VH with A28I, A31W, M56G, E57K
notes: VH dAb

- IC50 (human IL-13 [7]): 0.34 nM
B19: DOM10-53-531 (other)
VH: B16 VH with A28T, A31W, M56G, E57K
notes: VH dAb

- binding result (human IL-13 [3]): binds
B22: DOM10-224 (other)
VL: DIQMTQSPSSLSASVGDRVTITCRASPNIAVDLAWYQQKPGKAPKLLIRGVSRLQSGVPSRFSGSGSGTDFTLTISSLQPEDFATYYCRQGAMGSYTFGQGTKVEIKR
notes: Vk dAb

- binding result (human IL-13 [3]): binds
B24: DOM10-270 (other)
VL: DIQMTQSPSSLSASVGDRVTITCRASSVILNELHWYQQKPGKAPKLLISAVSRLQSGVPSRFSGSGSGTDFTLTISSLQPEDFATYYCLQTFWGPYTFGQGTKVEIKR
notes: Vk dAb

Continued, binder first:

B4: DOM10-224-TVAAPS-DOM9-155-78 (bispecific antibody)
chain: DIQMTQSPSSLSASVGDRVTITCRASPNIAVDLAWYQQKPGKAPKLLIRGVSRLQSGVPSRFSGSGSGTDFTLTISSLQPEDFATYYCRQGAMGSYTFGQGTKVEIKRTVAAPSDIQMTQSPSSLSASVGDRVTITCRASRHIGDWLHWYQQKPGKAPKLLIAWASTLDSGVPSRFSGSGSGTDFTLTISSLQPEDFATYYCLQEGWGPPTFGQGTKVEIKR
notes: in-line fusion, from pDOM5
- binding result (human IL-13 [4]): binds
- IC50 (human IL-4 [5]): 12.5 nM

B6: DOM10-275-99 (other)
VH: B5 VH with Q3H, V31S, V93I, W105Y
- EC50, HEK293 STAT6 SEAP reporter assay, hIL-13 (human IL-13 [6]): 2.8 nM
- EC50, HEK293 STAT6 SEAP reporter assay, cIL-13 (cynomolgous IL-13): 2 nM

B10: DOM10-276-ASTKGPS-DOM9-155-78 (bispecific antibody)
chain: EVQLLESGGGLVQPGGSLRLSCAASGFTFRDYEMDWVRQAPGKGLEWVSSIGPSGSETYYADSVKGRFTISRDNSKNTLYLQMNSLRAEDTAVYYCAKAYTSFDYWGQGTLVTVSSASTKGPSDIQMTQSPSSLSASVGDRVTITCRASRHIGDWLHWYQQKPGKAPKLLIAWASTLDSGVPSRFSGSGSGTDFTLTISSLQPEDFATYYCLQEGWGPPTFGQGTKVEIKR
notes: in-line fusion, from pDOM5
- binding result (human IL-13 [4]): binds
- IC50 (human IL-4 [5]): 5.02 nM

B12: DOM9-112-210-ASTKGPS-DOM10-215 (bispecific antibody)
chain: EVQLLESGGGLVQPGGSLRLSCAASGFTFRNFGMGWVRQAPGKGLEWVSWIISSGTETYYADSVKGRFTISRDNSKNTLYLQMNSLRAEDTAVYYCAKSLGRFDYWGQGTLVTVSSASTKGPSDIQMTQSPSSLSASVGDRVTITCRASQNIFADLNWYQQKPGKAPKLLIYMGSRLQSGVPSRFSGSGSGTDFTLTISSLQPEDFATYYCQQDYKFPLTFGQGTKVEIKR
notes: in-line fusion, from pDOM5
- binding result (human IL-13 [4]): binds
- IC50 (human IL-4 [5]): 14.2 nM

B13: DOM10-212-TVAAPS-DOM9-155-78 (bispecific antibody)
chain: DIQMTQSPSSLSASVGDRVTITCRASSVILNELHWYQQKPGKAPKLLISAVSRLQSGVPSRFSGSGSGTDFTLTISSLQPEDFATYYCLQTFWGPFTFGQGTKVEIKRTVAAPSDIQMTQSPSSLSASVGDRVTITCRASRHIGDWLHWYQQKPGKAPKLLIAWASTLDSGVPSRFSGSGSGTDFTLTISSLQPEDFATYYCLQEGWGPPTFGQGTKVEIKR
notes: in-line fusion, from pDOM5
- binding result (human IL-13 [4]): binds

B14: DOM9-112-210-ASTKGPS-DOM10-208 (bispecific antibody)
chain: EVQLLESGGGLVQPGGSLRLSCAASGFTFRNFGMGWVRQAPGKGLEWVSWIISSGTETYYADSVKGRFTISRDNSKNTLYLQMNSLRAEDTAVYYCAKSLGRFDYWGQGTLVTVSSASTKGPSDIQMTQSPSSLSASVGDRVTITCRASSPITDGLAWYQQKPGKAPKLLIDTGSRLQSGVPSRFSGSGSGTDFTLTISSLQPEDFATYYCRQGAMGSYTFGQGTKVEIKR
notes: in-line fusion, from pDOM5
- binding result (human IL-13 [4]): binds
- IC50 (human IL-4 [5]): 2.48 nM

B15: DOM10-53-396 (other)
VH: B16 VH with A28I, A31W, V37A, D52G, K54H, M56N, E57V
notes: VH dAb
- IC50 (human IL-13 [1]): 0.055 nM and 0.03 nM

B17: DOM10-53-472 (other)
VH: B16 VH with A28I, A31W, G35K, K54H, M56K, E57I
notes: VH dAb
- IC50 (human IL-13 [7]): 0.054 nM

B20: DOM10-53-475 (other)
VH: B16 VH with A28T, A31W, K54H, M56K, E57I
notes: VH dAb
- IC50 (human IL-13 [7]): 0.046 nM

B21: DOM10-208 (other)
VL: B22 VL with P27S, N28P, A30T, V31D, D32G, R49D, G50T, V51G
notes: Vk dAb
- binding result (human IL-13 [3]): binds

B23: DOM10-212 (other)
VL: B24 VL with Y96F
notes: Vk dAb
- binding result (human IL-13 [3]): binds
